Assay: yeast display, Sf9 membrane polyspecificity reagent, FACS + sequencing; frameworks hold sequencing errors
How it was run: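 Galactose induction of a Saccharomyces cerevisiae BJ5465 synthetic nanobody display library ran 36–48 hours. The cells were then stained for 1 hour at 4 °C with 10% biotinylated, detergent-solubilized Sf9 membrane reagent, pulled down on streptavidin microbeads and FACS-sorted into low and high (top ~1%) gates on expression and reagent-binding fluorescence. Labels for polyreactivity follow the gate of origin.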

Sequence	polyreactivity (PSR sort gate)
QVQLVESGGGLVQAGGSLRLSCAASGRTFNFYAMGWYRQAPGKERELVAAISRTGGITYYADSVKGRFTISRDNAKNTVYLQMNSLKPEDTAVYYCNAEYIYYYPTDPYTYYYWGQGTQVTVSS	low polyreactivity
QVQLVESGGGLVQAGGSLRLSCAASGRTFNFYPMGWYRPAPGKERELVAAITVRGGSTYYSDSVKGRFTISRYNAKNTVYLQMNSLKPEDTAVYYCAADPYPYYGAYDYWGQGTQVTVSS	high polyreactivity
QVQLVESGGGLVQAGGSLRLSCAASGRTFNFYTMGWYRQAPGKEREFVAGITSTGGSTDYADSVKGRFTISRDNAKNSVYLQMNSLKPEDTAVYYCNKVTSFVGEYDYWGQGTQVTVSS	high polyreactivity
QVQLVESGGGLVQAGGSLRLSCAASGRTFNHYAMGWYRQAPGKERELVAGITISGGSTYYADSVKGRFTISRDHAKNTVDLQMNSLKPEATAVYYCNAVSDYYRQSKWTMDYWGQGTQVTVSS	low polyreactivity
QVQLVESGGGLVQAGGSLRLSCAASGRTFNKYAMGWYRKAPGKERELVAAINYSGGRTYYADSVKGRFTISRDNAKNTVSLQMNSLKPEDTAVYYCNRDDAWQEYDYWGQGTQVTVSS	low polyreactivity
QVQLVESGGGLVQAGGSLRLSCAASGRTFNNYAMGWYRQAPGKERELVASIRKNGGSTYYADSVKGRFTISRDNAKNTVYLQMNSLKPEDTAVYYCGARYWGISRIFPSKYDYWGQGTQVTVSS	high polyreactivity
QVQLVESGGGLVQAGGSLRLSCAASGRTFNPYAMGWYRQAPGKERELVAVISSIGGSTYADSVKGRFTISRDNAKNTVYLQMNSLKPEDTAVYYCNRATFGQWGGDYWGQGTQVTVSS	high polyreactivity
QVQLVESGGGLVQAGGSLRLSCAASGRTFNRNAMGWYRQAPGKARELVAAISRGGGGTFFADSVKWRFTISRDNAKNTVYLQMNSLKPEDTAFYFCAAVPIAADKANGYDYWGQGTQVTVSS	low polyreactivity
QVQLVESGGGLVQAGGSLRLSCAASGRTFNRYAMGWYRQAPGKERELVAAITRGGSTYYADSVKGRFTISRDNAQNTVYLQMNSLKPEDTAVYYCAKYVYSEGYYWGQGTQVTVSS	high polyreactivity
QVQLVESGGGLVQAGGSLRLSCAASGRTFNRYAMGWYRQAPGKERELVAVITGSGGAGTYYADSVKGRFTISRDNAKNTVYLQMNSLKPEDTAVYYCNAGGGFYGSTVEHDYWGQGTQVTVSS	low polyreactivity
QVQLVESGGGLVQAGGSLRLSCAASGRTFNTYAMGWYRQAPGKERELVAAISRTGASTYYADSVKGRFTISRDNAKNTVYLQMNSLKPEDTAVYYCAADANSGDGYYWGQGTQVTVSS	high polyreactivity
QVQLVESGGGLVQAGGSLRLSCAASGRTFNTYDMGWYRQAPGKERELVAAITSRGGTTYYADSVKGRFTITRDNAKNTVYLQMNSLKPEDTAVSYCAADYYSWDYQYDYDYWGQGTQVTVSS	low polyreactivity
QVQLVESGGGLVQAGGSLRLSCAASGRTFNWYAMGWYRQAPGKERELVAAISSRGGSTYADSVKGRFTISRDNAKNTVYLQMNSLKPEDTAVYYCAARHHGTKYDYWGLGTQVTVSS	low polyreactivity
QVQLVESGGGLVQAGGSLRLSCAASGRTFNYNTMGWYRQAPGKERELVAAINKGGTRTYYADSVKGRFTISRDNAKNTVYLQMKSLNPEDTAVYYCAARIGGGSYWGQVTQVTVSS	high polyreactivity
QVQLVESGGGLVQAGGSLRLSCAASGRTFNYYAMGWYRQAPGKERELVAAISWSGTPTYYADSVKGRFTISRDNAKNTVYLQMNCLKPEDTAVYYCAAYLVSYPRGNYIRYDYWGQGTQVTVSS	low polyreactivity
QVQLVESGGGLVQAGGSLRLSCAASGRTFNYYGMGWYRQAPGKERELVAAISRGGTTNYADSVKGRFTISRDNAKNTVYLQMNSLKPEDTAVYYCAKGRSHWHSYQYVRPNYDYWGQGTQVTVSS	low polyreactivity

Sequence	polyreactivity (PSR sort gate)
QVQLVESGGGLVQAGGSLRLSCAASGRTFPAYAMGWYRQAPGKERELVAAITWSGGRTYYADSVKGRFTISRDNAKNTVYLQMNSLKPEDTAVYYCAAQYRVLWYSYYYWGQGTQVTVSS	high polyreactivity
QVQLVESGGGLVQAGGSLRLSCAASGRTFPAYTMGWYRQAPGKERELVAAISRVGTTYYADSVKGRFTISRDNAKNTGYIQMNSLKPEDTAFYYCNARTWSWSFDYWGQGTLVTVSS	high polyreactivity
QVQLVESGGGLVQAGGSLRLSCAASGRTFPFNVMGWYRQAPGKERELVAAISSGGSTNYADSVKGRFTISRDNAKNTVYLQMNSLKPEDTAVYYCAAYSVYGRYGRTFYYWGQGTQVTVSS	high polyreactivity
QVQLVESGGGLVQAGGSLRLSCAASGRTFPFYAMGWYRPAPGKERELVAAIHSGGITNYADSVKGRFTISRDNAKNTVYLQMNSLKPEDYAVYDCAALTAFYRERGYWGEGTQVTVSS	low polyreactivity
QVQLVESGGGLVQAGGSLRLSCAASGRTFPGYAMGWYRQAPGKERELVASITSRGGITYYADSVKGRFTISRDNAKNTVYLQMNSLKPEDTAVYYCATDFAVTKMEYWGQGTQVTVSS	low polyreactivity
QVQLVESGGGLVQAGGSLRLSCAASGRTFPGYGMGWYRQAPGKERELVAVITSNGGITYYADSVKGRFTISRDNAKNTVYLQMNSLKPEDTAVYYCAAQNVWFYGFWRDYWGQGTQVTVSS	low polyreactivity
QVQLVESGGGLVQAGGSLRLSCAASGRTFPHYAMGWYRQAPGKERELVAAITSGGTTNYADSVKGRFTISRDNEKNTVYLQLNSLKPEDTAVYYCNADMDLDTAWDGFVAYDYWGQGTQVTVSS	low polyreactivity
QVQLVESGGGLVQAGGSLRLSCAASGRTFPIYAMGWYRQAPGKERELVAAITYSGGSTYYADSVKGRFTISRDNAKNTVYLQMNSLKPEDTAVYYCAVDGTKPYWHQRYDYWGQGTQVTVSS	low polyreactivity
QVQLVESGGGLVQAGGSLRLSCAASGRTFPIYAMGWYRQAPGKERELVASITRSGGSTYYADSVKGRFTISRDNAKNTVYLQMNSLKPEDTAVYYCAAAANSYSVYTGKFYYWGQGTQVTVSS	high polyreactivity
QVQLVESGGGLVQAGGSLRLSCAASGRTFPIYAMGWYRQARGKERELVAAITYSGGSTYYADSVKGRFTISRDNAKNTDYLQMNSQKPEDTAVYYCAVDGTKPYWHQRYDYWGQGTQVTGSS	low polyreactivity
QVQLVESGGGLVQAGGSLRLSCAASGRTFPLYDMGWYRQAPGKERELVAAISLSGGRTYYADSVKGRFTISRDNAKNTVYLQMNSLKPEDTAVYYCAARGTLSAQVGIRRYDYWGQGTQVTVSS	low polyreactivity
QVQLVESGGGLVQAGGSLRLSCAASGRTFPPNSMAWYRQAPGKERELVAGITRGGNTYYADSVKGRFTISRDNAKNTVYLQMNSLKPEDTAVYYCAAERRYYSWYWYRVNYCGQGTQVTVSS	high polyreactivity
QVQLVESGGGLVQAGGSLRLSCAASGRTFPPYAMGWYRQAPGKERELVAANSWSGGSTYYADSVKGRFTISRDNAKNTVYLQMNSLKPEDTAVYYCAKATRDRGRYYYWGQGTQVTVSS	high polyreactivity
QVQLVESGGGLVQAGGSLRLSCAASGRTFPPYAMGWYRQAPGKERELVASIRRGGSTHYADSVKGRFTISRDNAKNTVYLQMNSLKPEDTAVYYCNADVIFGYTHYNYWGQGTQVTVSS	high polyreactivity
QVQLVESGGGLVQAGGSLRLSCAASGRTFPRNAMGWYRQAPGKERELVARINWSGGSTTYADSVKGRFTISRDNAKNTVYLQMNSLKPEDTAVYYCNARPYTSSFTKYGPSGYWGQGTQVTVSS	high polyreactivity
QVQLVESGGGLVQAGGSLRLSCAASGRTFPRYAMGWYRQAPGKERELVADISFSGDSTSYADSVKGRFTISRDNAKNTVYLQMNSLKPEDTAVYYCNADYKSTVFRYSGSRNYWGQGTQVTVSS	low polyreactivity

— the nanobody polyreactivity screen of Harvey et al. (2022)
